Article PMC2815101

Legend:
[1] = tested on: CC(=O)OCC1=C(C(=O)O)N2C(=O)[C@@H](NC(=O)Cc3cccs3)[C@H]2SC1; test: Michaelis-Menten hydrolysis kinetics, purified enzyme; assay type: biochemical, Escherichia coli; settings: active site (catalytic Ser64)
[2] = tested on: CO/N=C(\C(=O)N[C@@H]1C(=O)N2C(C(=O)O)=C(COC(C)=O)CS[C@H]12)c1csc(N)n1; test: as above; assay type: biochemical, Escherichia coli; settings: active site (catalytic Ser64)

Substance: AmpC β-lactamase (Escherichia coli K-12; E235K)
- Km [1]: 24 µM
- kcat [1]: 84.6 s⁻¹
- Km [2]: 77 µM
- kcat [2]: 6.9 s⁻¹

Substance: AmpC β-lactamase (Escherichia coli K-12; T86I)
- Km [2]: 295 µM
- kcat [2]: 9.2 s⁻¹
